Experimental findings from PMC5626478, “LARP4 mRNA codon-tRNA match contributes to LARP4 activity for ribosomal protein mRNA poly(A) tail length protection” are described below.

The target in the data set is LARP4-NTD (1-286) (human, UniProt Q71RC2 1-286). Briefly: EMSA; EMSA as described in Yang et al. 2011; buffer, salt, pH and temperature not given; protein in uM. The note with it: protein: recombinant. For orientation: Mobility shift assays separate free from complexed probe on a gel.
Chain of LARP4-NTD (1-286) (Q71RC2 1-286): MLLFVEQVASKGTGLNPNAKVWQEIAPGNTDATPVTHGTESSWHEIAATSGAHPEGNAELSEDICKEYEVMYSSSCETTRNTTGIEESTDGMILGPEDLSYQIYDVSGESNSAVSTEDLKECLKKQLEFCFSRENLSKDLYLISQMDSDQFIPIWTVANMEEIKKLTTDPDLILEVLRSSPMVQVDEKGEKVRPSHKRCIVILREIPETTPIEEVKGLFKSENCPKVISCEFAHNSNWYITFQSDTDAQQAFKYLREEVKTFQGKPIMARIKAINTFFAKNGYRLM

Consider AAAAAAAAAAAAAAA (ssRNA) [A15 3'-OH], for which the binding result is “binds”.
